According to publication PMC7031066:
Residue numbers refer to the chain shown, from its start.

What was measured:
[1] = target: T1, PeWRKY1 (Populus euphratica, UniProt A0AAJ6U0E7 1-595); experiment: EMSA
[2] = target: T1, PeWRKY1; experiment: competition
[3] = target: T1, PeWRKY1; experiment: competition; remark: listed apart in the source

B1: PeHA1 promoter W-box probe (dsDNA)
DNA 1: CCCTATCGGGCAAGATTTGACCCGCCCGAGTTGATCCCTC
DNA 2: GAGGGATCAACTCGGGCGGGTCAAATCTTGCCCGATAGGG
- binding result [1]: binds

B2: PeHA1 promoter W-box unlabeled competitor (dsDNA)
DNA 1: B1 DNA 1
DNA 2: B1 DNA 2
- binding result [2]: binds

B3: W-box mutant probe (TTGACC to TTAGCC) (dsDNA)
DNA 1: B1 DNA 1 with G19A, A20G
DNA 2: B1 DNA 2 with T21C, C22T
- binding result [3]: no binding
